From paper PMC6773860

Key:
[1] = molecular target: human JAM-A on the surface of Lec2-JAM-A cells (human) (UniProt Q9Y624); experiment: single-virus force spectroscopy (FD-based AFM); virions on the AFM tip; living Lec2-JAM-A cells co-cultured with fluorescent Lec2 cells; PeakForce QNM mode, 37 °C, culture medium, 5% CO2; no glycan added
[2] = molecular target: His6-tagged JAM-A (junctional adhesion molecule A) (UniProt Q9Y624); experiment: single-virus force spectroscopy (FD-based AFM); virions or ISVPs covalently linked by a PEG27 spacer to the AFM tip; His6-JAM-A immobilised on an NTA-Ni2+ gold surface; virus buffer (150 mM NaCl, 15 mM MgCl2, 10 mM Tris pH 7.4), ~25 °C; single bonds fitted with the Bell-Evans model; no glycan added
[3] = molecular target: human JAM-A on the surface of Lec2-JAM-A cells (human) (UniProt Q9Y624); experiment: single-virus force spectroscopy (FD-based AFM); as a4, the same area scanned again after adding 1 mM LNnT to the culture medium
[4] = molecular target: human JAM-A on the surface of Lec2-JAM-A cells (human) (UniProt Q9Y624); experiment: single-virus force spectroscopy (FD-based AFM); as a4, the same area scanned again after adding 1 mM Neu5Ac or 1 mM LSTa to the culture medium; also on cells treated before with neuraminidase (40 mUnit/mL, 1 h)
[5] = molecular target: His6-tagged JAM-A (junctional adhesion molecule A) (UniProt Q9Y624); experiment: single-virus force spectroscopy (FD-based AFM); as a1, after injection of 1 mM sialylated glycan (Neu5Ac or LSTa)
[6] = molecular target: His6-tagged junctional adhesion molecule A (UniProt Q9Y624); experiment: single-virus force spectroscopy (FD-based AFM); virus particles on the AFM tip through a PEG27 linker; His6-JAM-A on an NTA-Ni2+ gold model surface; virus buffer, ~25 °C; after adding 1 mM Neu5Ac; koff of the single bond from a Bell-Evans fit of the DFS plot
[7] = molecular target: His6-tagged junctional adhesion molecule A (UniProt Q9Y624); experiment: single-virus force spectroscopy (FD-based AFM); virus particles on the AFM tip through a PEG27 linker; His6-JAM-A on an NTA-Ni2+ gold model surface; virus buffer, ~25 °C; after adding 1 mM LSTa; koff of the single bond from a Bell-Evans fit of the DFS plot
[8] = molecular target: His6-tagged junctional adhesion molecule A (UniProt Q9Y624); experiment: single-virus force spectroscopy (FD-based AFM); virus particles on the AFM tip through a PEG27 linker; His6-JAM-A on an NTA-Ni2+ gold model surface; virus buffer, ~25 °C; after adding 1 mM LNnT (no sialic acid); koff of the single bond from a Bell-Evans fit of the DFS plot

“reovirus σ1 attachment protein of mutant strain T3SA− (P204L), on purified virions (from UniProt P03528 1-455) (natural protein)” showed a frequency of adhesion events [1] of 4%, a koff [2] of 0.05 s⁻¹ and a specific binding force [2] of 20 to 130 pN.

For “reovirus σ1 attachment protein of strain T3SA+, on purified virions (from UniProt P03528 1-455) (natural protein)”, the binding frequency after 1 mM LNnT [3] was 3.9%, the binding frequency after 1 mM LSTa [4] was 4.8% and the binding frequency after 1 mM Neu5Ac [4] was 4.9%. The increase in binding after Neu5Ac against before, neuraminidase-treated cells [4] was 20%, the binding frequency before LNnT [1] was 3.8% and the binding frequency before LSTa [1] was 3.8%. For the same substance, the binding frequency before Neu5Ac [1] was 3.9%, the density of adhesion events [1] was 3.5% and the rupture force [1] was 50 to 400 pN. For the same substance, the simultaneous virus-receptor bonds [1] was < 4, the koff [2] was 0.04 s⁻¹ and the specific binding force [2] was 20 to 130 pN. The overall binding force with 1 mM Neu5Ac or LSTa [5] was < 400 pN and the simultaneous virus-receptor bonds in the presence of α-SA [5] was < 3.

“reovirus σ1 attachment protein on T3SA+ infectious subvirion particles (from UniProt P03528 1-455) (natural protein)” showed a koff [6] of 0.18 s⁻¹.

In the case of “reovirus σ1 attachment protein on T3SA- virions (P204L) (from UniProt P03528 1-455)”, the koff [7] is reported as 0.24 s⁻¹, the koff [6] is reported as 0.08 s⁻¹ and the koff [8] is reported as 0.07 s⁻¹.
